The results in this text go back to article PMC10637973 (The Journal of Biological Chemistry, 2023).

The target in one assay is T1, mono-ubiquitin (UniProt P0CG47 1-76).
T1 construct: ubiquitin (the reaction product, residues 1-76); also called product ubiquitin; source: E. coli BL21(DE3)-Codon Plus; purification of the ubiquitin constructs not described
Nature of the assay: ITC; ubiquitin samples (200–500 μM) titrated into USP11 samples (20–30 μM); 50 mM Tris-Cl, pH 7.5, 150 mM NaCl, 1% (v/v) glycerol; 25 °C; one-site binding model. The conditions noted are these: both partners purified.

The target of a further assay is T2, linear diubiquitin (UniProt P0CG47 1-76; P0CG47 1-76).
T2 construct: ubiquitin, distal moiety (residues 1-76); ubiquitin, proximal moiety, its Met1 (Met77 of the chain) joined by a peptide bond to Gly76 of the distal moiety; source: E. coli BL21(DE3)-Codon Plus; purification of the ubiquitin constructs not described
The assay is described as above. The conditions noted are these: both partners purified.

B1: USP11-D1D2 (enzyme, human)
chain: MSEEDEDFKGQPGICGLTNLGNTCFMNSALQCLSNVPQLTEYFLNNCYLEELNFRNPLGMKGEIAEAYADLVKQAWSGHHRSIVPHVFKNKVGHFASQFLGYQQHDSQELLSFLLDGLHEDLNRVKKKEYVELCDAAGRPDQEVAQEAWQNHKRRNDSVIVDTFHGLFKSTLVCPDCGNVSVTFDPFCYLSVPLPASTSKPVRLQECIELFTTVETLEKENPWYCPSCKQHQLATKKLDLWMLPEILIIHLKRFSYTKFSREKLDTLVEFPIRDLDFSEFVIQPQNESNPELYKYDLIAVSNHYGGMRDGHYTTFACNKDSGQWHYFDDNSVSPVNENQIESKAAYVLFYQRQDVARRLL
notes: USP11, human, catalytic subdomain D1, residues Met295-Pro489; numbering of UniProt P51784; linker that replaces the insertion between subdomains D1 and D2; USP11, human, catalytic subdomain D2, residues Pro778-Leu937; also called USP11 catalytic core; USP11 catalytic domain; source: E. coli BL21(DE3)-Codon Plus, purified (Ni2+ HiTrap chelating column, SEC Superdex 200); not shown: His tag (from …)
Usually Kd stands for the constant that tells how readily two partners part at equilibrium. In turn, B1 showed a Kd with mono-ubiquitin of around 3500 nM.

B2: USP11-D1D2 R885G (enzyme, human)
chain: MSEEDEDFKGQPGICGLTNLGNTCFMNSALQCLSNVPQLTEYFLNNCYLEELNFRNPLGMKGEIAEAYADLVKQAWSGHHRSIVPHVFKNKVGHFASQFLGYQQHDSQELLSFLLDGLHEDLNRVKKKEYVELCDAAGRPDQEVAQEAWQNHKRRNDSVIVDTFHGLFKSTLVCPDCGNVSVTFDPFCYLSVPLPASTSKPVRLQECIELFTTVETLEKENPWYCPSCKQHQLATKKLDLWMLPEILIIHLKRFSYTKFSREKLDTLVEFPIRDLDFSEFVIQPQNESNPELYKYDLIAVSNHYGGMGDGHYTTFACNKDSGQWHYFDDNSVSPVNENQIESKAAYVLFYQRQDVARRLL
notes: USP11, human, catalytic subdomain D1, residues Met295-Pro489; numbering of UniProt P51784; linker that replaces the insertion between subdomains D1 and D2; USP11, human, catalytic subdomain D2, residues Pro778-Leu937; source: E. coli BL21(DE3)-Codon Plus, purified (Ni2+ HiTrap chelating column, SEC Superdex 200); not shown: His tag (from the Ni2+ chelating column)
In turn, B2 showed a Kd with mono-ubiquitin of 1100 nM.

B3: USP11-D1D2 H399Q (enzyme, human)
chain: MSEEDEDFKGQPGICGLTNLGNTCFMNSALQCLSNVPQLTEYFLNNCYLEELNFRNPLGMKGEIAEAYADLVKQAWSGHHRSIVPHVFKNKVGHFASQFLGYQQQDSQELLSFLLDGLHEDLNRVKKKEYVELCDAAGRPDQEVAQEAWQNHKRRNDSVIVDTFHGLFKSTLVCPDCGNVSVTFDPFCYLSVPLPASTSKPVRLQECIELFTTVETLEKENPWYCPSCKQHQLATKKLDLWMLPEILIIHLKRFSYTKFSREKLDTLVEFPIRDLDFSEFVIQPQNESNPELYKYDLIAVSNHYGGMRDGHYTTFACNKDSGQWHYFDDNSVSPVNENQIESKAAYVLFYQRQDVARRLL
notes: as for B2
Molecule B3 showed a dissociation constant (Kd) with mono-ubiquitin of around 2000 nM.

B4: USP11-D1D2 C318S/D886G (enzyme, human)
chain: MSEEDEDFKGQPGICGLTNLGNTSFMNSALQCLSNVPQLTEYFLNNCYLEELNFRNPLGMKGEIAEAYADLVKQAWSGHHRSIVPHVFKNKVGHFASQFLGYQQHDSQELLSFLLDGLHEDLNRVKKKEYVELCDAAGRPDQEVAQEAWQNHKRRNDSVIVDTFHGLFKSTLVCPDCGNVSVTFDPFCYLSVPLPASTSKPVRLQECIELFTTVETLEKENPWYCPSCKQHQLATKKLDLWMLPEILIIHLKRFSYTKFSREKLDTLVEFPIRDLDFSEFVIQPQNESNPELYKYDLIAVSNHYGGMRGGHYTTFACNKDSGQWHYFDDNSVSPVNENQIESKAAYVLFYQRQDVARRLL
notes: USP11, human, catalytic subdomain D1, residues Met295-Pro489; numbering of UniProt P51784; linker that replaces the insertion between subdomains D1 and D2; USP11, human, catalytic subdomain D2, residues Pro778-Leu937; Made from the USP11-D1D2 C318S template; source: E. coli BL21(DE3)-Codon Plus, purified (Ni2+ HiTrap chelating column, SEC Superdex 200); not shown: His tag (from the Ni2+ chelating …)
As to B4, the binding result in the assay with linear diubiquitin was “binds”.
